# T1: Recombinant RSV attachment protein (G protein) corresponding to RSV B/B1 (Respiratory syncytial virus B/B1, UniProt O36633 65-299)
# T1 construct: also called RSV Gb; Gb
# T1 sequence: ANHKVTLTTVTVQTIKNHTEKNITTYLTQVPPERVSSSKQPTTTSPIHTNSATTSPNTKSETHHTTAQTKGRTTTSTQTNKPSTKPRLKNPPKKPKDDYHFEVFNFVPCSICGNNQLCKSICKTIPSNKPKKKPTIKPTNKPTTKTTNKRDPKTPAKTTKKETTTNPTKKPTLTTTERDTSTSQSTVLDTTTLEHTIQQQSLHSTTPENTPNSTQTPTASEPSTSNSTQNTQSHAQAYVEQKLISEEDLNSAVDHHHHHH
# T2: Sym-1789 (RSV-G type B central region peptide 145-184) (Respiratory syncytial virus type B, N-terminal biotin)
# T2 construct: Synthetic peptide, C-terminally truncated against Sym-1788
# T2 peptide: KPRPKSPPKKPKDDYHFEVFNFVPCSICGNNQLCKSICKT
# T3: Sym-1788 (RSV-G type B central region peptide 145-201) (Respiratory syncytial virus type B, N-terminal biotin)
# T3 construct: Synthetic peptide
# T3 peptide: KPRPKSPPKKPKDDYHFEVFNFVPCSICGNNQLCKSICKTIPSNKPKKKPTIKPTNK
# T4: Sym-1706 (RSV G central conserved domain (CCD) peptide, type A 145-184) (Respiratory syncytial virus type A, N-terminal biotin)
# T4 construct: Synthetic peptide, C-terminally truncated against Sym-1705
# T4 peptide: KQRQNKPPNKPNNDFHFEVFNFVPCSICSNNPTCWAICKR
# T5: Sym-1705 (RSV-G type A central region peptide 145-201) (Respiratory syncytial virus type A, not fully specified; N-terminal biotin)
# T5 construct: Synthetic peptide
# T5 peptide: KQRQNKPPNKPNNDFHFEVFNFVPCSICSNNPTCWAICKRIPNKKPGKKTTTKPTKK
# T6: G protein of RSV A/Long (ATCC Cat. No. VR-26), on virus (Respiratory syncytial virus A/Long, UniProt P20895 1-298)
# T6 sequence (looked up): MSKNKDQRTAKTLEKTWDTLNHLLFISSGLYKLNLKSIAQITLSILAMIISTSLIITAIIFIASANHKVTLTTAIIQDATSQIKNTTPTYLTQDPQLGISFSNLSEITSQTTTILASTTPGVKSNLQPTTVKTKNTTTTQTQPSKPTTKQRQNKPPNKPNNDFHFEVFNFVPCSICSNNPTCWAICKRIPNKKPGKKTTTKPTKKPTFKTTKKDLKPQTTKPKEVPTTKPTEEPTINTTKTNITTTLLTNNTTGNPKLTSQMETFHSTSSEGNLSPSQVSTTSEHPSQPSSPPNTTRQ
# Columns and labels:
# [1] = molecular target: T1, Recombinant RSV attachment protein (G …); assay: ELISA, coated recombinant protein
# [2] = molecular target: T2, Sym-1789 (RSV-G type B central region …); assay: Octet Red384, streptavidin tips with biotinylated peptide
# Method: (§1) Binding of the mAbs to the RSV G peptides was also determined using Streptavidin sensor tips on the Octet Red384 (ForteBio).
# [3] = molecular target: T3, Sym-1788 (RSV-G type B central region …); assay: as above
# Method: as §1
# [4] = molecular target: T4, Sym-1706 (RSV G central conserved …); assay: as above
# Method: as §1
# [5] = molecular target: T5, Sym-1705 (RSV-G type A central region …); assay: as above
# Method: as §1
# [6] = molecular target: T2, Sym-1789 (RSV-G type B central region …); assay: ELISA, antibody titrated on biotinylated peptide on avidin plate
# [7] = molecular target: T3, Sym-1788 (RSV-G type B central region …); assay: as above
# [8] = molecular target: T4, Sym-1706 (RSV G central conserved …); assay: as above
# [9] = molecular target: T5, Sym-1705 (RSV-G type A central region …); assay: as above
# [10] = molecular target: T6, G protein of RSV A/Long (ATCC Cat. No. …); assay: cell-based or functional assay
# [11] = molecular target: G protein of RSV B/18537 (ATCC Cat. No. VR-1580), on virus (Respiratory syncytial virus B/18537); assay: cell-based or functional assay
binder,measurement,setting,value
"CB030.1 (antibody, V domains shown, Tested as human IgG from the pCP9-kappa vector) VH: QVQLVQSGAEMKRPGSSVKVSCKASGGTFSTFAINWVRQAPGQGFEWMGGVIPGFDSANYAQKFQGRLTMSADESTSTVYMELSSLRSDDTAVYYCAGNSGYCSGDSCAPNWGPGTLVTVSS VL: DIVMTQSPLSLPVTPGEPASISCRSSQSLVHSNGYSYLDWYLQKPGQSPQLLIYLGSNRPSGVPDRFSGSGSGTDFTLKISRVEAEDVGVYFCMQNLQTPTFGGGTKVEIK",binding result,[1],binds
same,Binding (Octet) [RU],[2],1.36 RU
same,Binding (Octet) [RU],[3],0.73 RU
same,Binding (Octet) [RU],[4],0.53 RU
same,Binding (Octet) [RU],[5],0.47 RU
same,IC50,[6],~0.02 µg/mL
same,IC50,[7],~0.02 µg/mL
same,IC50,[8],~0.02 µg/mL
same,IC50,[9],~0.02 µg/mL
same,"Neutralization IC50, plaque reduction assay, RSV A/Long",[10],0.037 µg/mL
same,"Neutralization IC50 (ng/mL), plaque reduction assay, RSV B/18537",[11],18.3 ng/mL
